The results in this text go back to patent US20260242487A1 (HANGZHOU ZHONGMEIHUADONG PHARMACEUTICAL, published 2026).

Assay [1] addresses T1, hFGFR2b-Fc (Kactus, Catalog #FGR-HM2BB) (human, UniProt P21802-3 22-378, biotinylated in Example 9 (printed as biotin-hFGFR2b-Fc; site not stated)).
T1 construct: Bought reagent; also called biotin-hFGFR2b-Fc; not shown: Fc part
Briefly: competition ELISA: inhibition of FGF7-his binding to coated hFGFR2b-Fc. On the procedure:
(§1) Inhibition of binding of FGF7 and FGF10 to FGFR2b by anti-FGFR2b antibodies was measured by ELISA assay. Each step of each assay was performed by room temperature incubation with the appropriate reagent for 1 hour, except the initial plate coating step was done overnight at 4° C. Between each step, plates were washed 3 times in PBS containing 0.05% Tween 20.
(§2) To determine the abilities of the anti-FGFR2b mAbs to block ligand binding to FGFR2b, plates were coated with 1 μg/ml hFGFR2b-Fc (Kactus, Catalog #FGR-HM2BB), and followed by blocking with 2% BSA. The plates were next incubated with human FGF7-his (20 nM, Sino Biological, Catalog #10210-H07E) or biotin-FGF10 (5 nM, Kactus, Catalog #FGF-HE010B) in the presence of serial diluted (1:5) anti-FGFR2b mAbs, and the bound ligands were detected with HRP-anti 6×His tag (Abcam, Catalog #ab1187) or Streptavidin-Protein HRP (Thermo, Catalog #21126) and TMB substrate (Cell Signaling, Catalog #7004P6).

In assay [2] the target is T1, hFGFR2b-Fc (Kactus, Catalog #FGR-HM2BB). Briefly: competition ELISA: inhibition of biotin-FGF10 binding to coated hFGFR2b-Fc. The protocol:
as §1, §2

The target of assay [3] is T2, human FGFR2b expressed on cells (hFGFR2b-expressing CHOK1 cells); Ba/F3 cells expressing full-length human … (human, UniProt P21802-3 22-822).
T2 construct: whole, on cells; also called FGFR2IIIb; CHOK1-FGFR2IIIb transfectants
T2 sequence (P21802 other isoform, or with tags, fused parts or gaps): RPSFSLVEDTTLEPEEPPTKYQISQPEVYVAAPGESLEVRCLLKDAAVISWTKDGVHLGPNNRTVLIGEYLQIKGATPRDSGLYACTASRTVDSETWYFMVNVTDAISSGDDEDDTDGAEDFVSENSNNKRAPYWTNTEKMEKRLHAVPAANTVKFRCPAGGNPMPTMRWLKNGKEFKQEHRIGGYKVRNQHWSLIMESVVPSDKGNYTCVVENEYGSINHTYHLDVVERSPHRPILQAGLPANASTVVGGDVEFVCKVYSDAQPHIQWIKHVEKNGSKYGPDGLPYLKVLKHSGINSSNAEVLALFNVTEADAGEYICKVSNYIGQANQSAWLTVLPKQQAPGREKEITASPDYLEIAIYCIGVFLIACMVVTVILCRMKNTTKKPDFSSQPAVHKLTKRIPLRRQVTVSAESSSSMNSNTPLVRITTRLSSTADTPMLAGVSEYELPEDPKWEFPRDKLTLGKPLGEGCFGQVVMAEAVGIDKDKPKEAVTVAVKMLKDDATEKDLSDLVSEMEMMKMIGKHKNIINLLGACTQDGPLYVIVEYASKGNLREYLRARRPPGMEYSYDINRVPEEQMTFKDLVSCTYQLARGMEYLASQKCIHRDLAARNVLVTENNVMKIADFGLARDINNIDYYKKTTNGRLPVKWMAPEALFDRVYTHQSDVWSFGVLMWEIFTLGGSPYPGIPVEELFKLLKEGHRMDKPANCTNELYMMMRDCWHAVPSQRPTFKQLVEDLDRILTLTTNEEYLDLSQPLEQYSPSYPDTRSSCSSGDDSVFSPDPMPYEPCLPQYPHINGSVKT
Briefly: flow cytometry on CHOK1 cells expressing hFGFR2b, detection with APC anti-human IgG Fc. On the procedure:
Appropriate cells (1×10⁵) were washed twice in FACS buffer (PBS+2% BSA), resuspended in 100 μl of FACS buffer containing serial diluted (1:5) anti-FGFR2b mAbs, and incubated at 4° C. for 1 hour. Cells were then washed twice in FACS buffer and the bound antibodies were detected by incubation with APC anti-human IgG Fc (Biolegend, Catalog #410712) for 1 hour at 4° C. After washing twice in FACS buffer, cells were analyzed on a Cytoflex (Beckmann Coulter). Aprutumab was also tested as a positive control which can bind to both FGFR2b and FGFR2c.
For orientation: In flow cytometry, cells or beads pass a laser one at a time.

Assay [4] has as its target T3, FGFR2b-his (human, UniProt P21802-3 22-378).
T3 construct: also called human FGFR2b antigen; human FGFR2b (FGFR2b-his); not shown: his tag
The experiment in a line: surface plasmon resonance (Octet, Sartorius): antibody immobilized by amine coupling, FGFR2b-his flowed over. The protocol: The binding affinities of anti-FGFR2b mAbs for human FGFR2b (FGFR2b-his) was measured using surface plasmon resonance (Octet, Sartorius). Anti-FGFR2b mAbs were immobilized on a dextran chip using the amine coupling kit and 100 mM ethylenediamine in 100 mM sodium borate, pH 8.0, was used as the blocking reagent. FGFR2b-his proteins diluted in HEPES-buffered saline with 0.05% surfactant P20 running buffer were flowed over the immobilized antibody.
For orientation: Surface plasmon resonance follows binding to a sensor surface in real time, without labels.

T3 sequence (P21802 other isoform, or with tags, fused parts or gaps): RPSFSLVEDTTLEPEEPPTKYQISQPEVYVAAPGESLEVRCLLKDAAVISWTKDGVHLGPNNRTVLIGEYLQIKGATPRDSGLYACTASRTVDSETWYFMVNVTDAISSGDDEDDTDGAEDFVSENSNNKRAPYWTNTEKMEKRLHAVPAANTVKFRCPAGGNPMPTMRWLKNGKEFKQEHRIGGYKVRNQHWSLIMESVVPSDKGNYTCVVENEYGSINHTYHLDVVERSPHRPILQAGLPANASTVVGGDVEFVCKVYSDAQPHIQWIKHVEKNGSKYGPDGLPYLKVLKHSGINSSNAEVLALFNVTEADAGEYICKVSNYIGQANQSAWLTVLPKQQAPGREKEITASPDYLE

B1: HC18 (antibody, human IgG1, kappa, V domains shown)
VH: EVQLQQSGTVLARPGASVKMSCKTSGYTFTSYWMHWVKQRPGQGLEWIGSIYPENSDTSYNQKFKGKAKLTAVTSASTAYMDLSSLTNEDSAVYYCSIYHGYDGDYWGQGTTLTVSS
VL: QIVLTQSPAIMSASPGEKVTITCSASSSVSYMYWFQQKPGTSPKLWIYSTSNLASGVPARFSGSGSGTSYSLTISRMEAEDAATYYCQQRSSYPYTFGGGTKLEIKR
notes: also called mAb HC18; the antibody of the present disclosure
Consider B1, for which, in assay [1], the IC50 turned out to be 3.82 nM. In addition, the IC50 in assay [2] worked out at 4.99 nM. The “EC50 (read off the curve)” value in assay [3] is about 0.4 nM. In assay [4], the Kd was found to be 26.7 nM, the koff worked out at 0.005 s⁻¹ and the kon was 187000 M⁻¹ s⁻¹.

What is called IC50 is the concentration that gives 50% inhibition. As usually defined, the EC50 (read off the curve) is the concentration at which the effect is half-maximal. Read a high EC50 (read off the curve) as a less potent agent. As a reminder, the Kd is a measure of binding affinity in units of concentration. A high value points to weaker binding. Broadly, the koff is the rate constant with which the complex falls apart. Low readings indicate slow dissociation, high ones fast dissociation. Broadly, the kon is a measure of how fast the partners come together.
